This note sets out measurements from article doi:10.1101/2024.10.11.617910 (bioRxiv, 2024).

The target of the test is beta-amyloid 42 peptide (UniProt P05067). The test is described as follows: SiMoA.

B1: Donanemab (antibody, V domains shown)
VH: QVQLVQSGAEVKKPGSSVKVSCKASGYDFTRYYINWVRQAPGQGLEWMGWINPGSGNTKYNEKFKGRVTITADESTSTAYMELSSLRSEDTAVYYCAREGITVYWGQGTTVTVSS
VL: DIVMTQTPLSLSVTPGQPASISCKSSQSLLYSRGKTYLNWLLQKPGQSPQLLIYAVSKLDSGVPDRFSGSGSGTDFTLKISRVEAEDVGVYYCVQGTHYPFTFGQGTKLEIK
Take B1: the binding result was “no binding”.
